For data set [1], the target named is T1, translin (wild-type, native) (Drosophila melanogaster, UniProt Q7JVK6 1-235).
T1 sequence: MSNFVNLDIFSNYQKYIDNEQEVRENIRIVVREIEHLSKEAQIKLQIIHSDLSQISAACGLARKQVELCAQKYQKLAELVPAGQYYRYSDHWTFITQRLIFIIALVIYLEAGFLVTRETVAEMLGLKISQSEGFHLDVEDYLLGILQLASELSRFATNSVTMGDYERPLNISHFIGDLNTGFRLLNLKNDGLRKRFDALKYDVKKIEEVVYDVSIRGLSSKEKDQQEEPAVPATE
Briefly: EMSA. In general terms: Mobility shift assays separate free from complexed probe on a gel.

Data set [2] deals with human translin (wild-type) (human, UniProt Q15631 1-228). Briefly: EMSA.
Sequence of human translin (wild-type) (Q15631 whole entry): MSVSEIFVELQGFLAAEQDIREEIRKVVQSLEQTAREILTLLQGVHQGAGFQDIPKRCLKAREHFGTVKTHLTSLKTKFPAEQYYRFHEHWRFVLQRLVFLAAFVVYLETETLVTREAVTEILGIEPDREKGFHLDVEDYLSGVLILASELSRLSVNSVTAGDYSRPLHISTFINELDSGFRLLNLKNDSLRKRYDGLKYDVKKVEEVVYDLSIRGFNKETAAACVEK

As to GCCCTCCTGCCCTCCTTCCGCGGG (ssDNA) [Bcl-CL1 24-mer ssDNA], the binding result in data set [1] and in data set [2] was “binds” in each case.

The values are drawn from PMC3642112.
